Data on four molecules can be found in US20230302083A1, “HIGHLY-NETWORKED C[…] COMPOSITION” (priority 2020, published 2023).

For the assay, the target named is HLA-A*0301 (human).

For RVIHFGAGSDK (modifications not checked), the HLA-A*0301 stabilization relative to HIV RK9 was > 50%.

For the molecule VMCGGSLYVK (modifications not checked), the HLA-A*0301 stabilization relative to HIV RK9 is > 50%.

Consider KGIYQTSNFR (modifications not checked), for which the HLA-A*0301 stabilization relative to HIV RK9 is > 50%.

Consider GNYQCGHYK (modifications not checked), for which the HLA-A*0301 stabilization relative to HIV RK9 was > 50%.
